Data taken from publication PMC10397247.
One block for each binder: values may come before it.

Assays:
4H2568-bA = biological target: T1, 4H2568-bA; assay: two-hybrid library CCNG1;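 further: natural log of median RNA to DNA barcode read ratio; higher means stronger binding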
T1 chain: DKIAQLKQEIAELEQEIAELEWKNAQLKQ

4H2619-bA = biological target: T2, 4H2619-bA; assay: two-hybrid library CCNG1;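 further: natural log of median RNA to DNA barcode read ratio; higher means stronger binding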
T2 chain: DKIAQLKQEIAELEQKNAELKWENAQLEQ

4H2745-bA = biological target: T3, 4H2745-bA; assay: two-hybrid library CCNG1;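 further: natural log of median RNA to DNA barcode read ratio; higher means stronger binding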
T3 chain: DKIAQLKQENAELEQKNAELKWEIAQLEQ

4H344-bA = biological target: T4, 4H344-bA; assay: two-hybrid library CCNG1;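 further: natural log of median RNA to DNA barcode read ratio; higher means stronger binding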
T4 chain: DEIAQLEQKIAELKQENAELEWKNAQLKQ

4H363-bA = biological target: T5, 4H363-bA; assay: two-hybrid library CCNG1
T5 chain: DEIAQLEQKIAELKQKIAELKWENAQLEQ

4H3907-bA = biological target: T6, 4H3907-bA; assay: two-hybrid library CCNG1
T6 chain: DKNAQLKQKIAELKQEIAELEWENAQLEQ

4H3961-bA = biological target: T7, 4H3961-bA; assay: two-hybrid library CCNG1
T7 chain: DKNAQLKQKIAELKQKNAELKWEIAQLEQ

4H470-bA = biological target: T8, 4H470-bA; assay: two-hybrid library CCNG1
T8 chain: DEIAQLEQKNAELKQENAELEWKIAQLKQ

4H_APH3 = biological target: T9, 4H_APH3; assay: two-hybrid library CCmax
T9 chain: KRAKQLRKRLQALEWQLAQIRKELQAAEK

4H_APH = biological target: T10, 4H_APH; assay: two-hybrid library CCmax
T10 chain: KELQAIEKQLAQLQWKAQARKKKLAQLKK

4H_BCR = biological target: T11, 4H_BCR; assay: two-hybrid library CCmax; settings: mean of both orientations
T11 chain: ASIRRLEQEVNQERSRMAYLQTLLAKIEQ

4H_GCN4 = assay: two-hybrid library CCmax
AP1-AA = biological target: T12, AP1-AA; assay: two-hybrid library CCmax
T12 chain: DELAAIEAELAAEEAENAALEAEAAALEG

AP2-AA = biological target: T13, AP2-AA; assay: two-hybrid library CCmax
T13 chain: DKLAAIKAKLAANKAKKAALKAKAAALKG

AP3-AA = biological target: T14, AP3-AA; assay: two-hybrid library CCmax
T14 chain: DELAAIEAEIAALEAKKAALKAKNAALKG

AP4-AA = biological target: T15, AP4-AA; assay: two-hybrid library CCmax; settings: mean of both orientations
T15 chain: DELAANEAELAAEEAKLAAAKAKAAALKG

AP5-AA = biological target: T16, AP5-AA; assay: two-hybrid library CCmax; settings: mean of both orientations
T16 chain: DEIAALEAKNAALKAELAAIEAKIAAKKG

AP6-AA = biological target: T17, AP6-AA; assay: two-hybrid library CCmax; settings: mean of both orientations
T17 chain: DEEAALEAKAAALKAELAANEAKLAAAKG

AP7-AA = biological target: T18, AP7-AA; assay: two-hybrid library CCmax; settings: mean of both orientations
T18 chain: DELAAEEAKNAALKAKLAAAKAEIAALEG

AP8-AA = biological target: T19, AP8-AA; assay: two-hybrid library CCmax; settings: mean of both orientations
T19 chain: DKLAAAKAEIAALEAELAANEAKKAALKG

GCN2_T = assay: two-hybrid library CCmax
O11-AA = biological target: T20, O11-AA; assay: two-hybrid library CCmax; settings: mean of both orientations
T20 chain: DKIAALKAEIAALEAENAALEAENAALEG

O13-AA = biological target: T21, O13-AA; assay: two-hybrid library CCmax; settings: mean of both orientations
T21 chain: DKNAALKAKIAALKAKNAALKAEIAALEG

O14-AA = biological target: T22, O14-AA; assay: two-hybrid library CCmax; settings: mean of both orientations
T22 chain: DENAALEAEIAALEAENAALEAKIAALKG

P1-AA = biological target: T23, P1-AA; assay: two-hybrid library CCmax; settings: mean of both orientations
T23 chain: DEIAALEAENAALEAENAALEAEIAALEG

P10-AA = biological target: T24, P10-AA; assay: two-hybrid library CCmax; settings: mean of both orientations
T24 chain: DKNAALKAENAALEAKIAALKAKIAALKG

P11-AA = biological target: T25, P11-AA; assay: two-hybrid library CCmax; settings: mean of both orientations
T25 chain: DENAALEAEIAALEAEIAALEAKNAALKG

P12-AA = biological target: T26, P12-AA; assay: two-hybrid library CCmax; settings: mean of both orientations
T26 chain: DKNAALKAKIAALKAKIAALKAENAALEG

P2-AA = biological target: T27, P2-AA; assay: two-hybrid library CCmax
T27 chain: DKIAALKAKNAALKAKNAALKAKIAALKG

P3-AA = biological target: T28, P3-AA; assay: two-hybrid library CCmax
T28 chain: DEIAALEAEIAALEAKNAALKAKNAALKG

P4-AA = biological target: T29, P4-AA; assay: two-hybrid library CCmax; settings: mean of both orientations
T29 chain: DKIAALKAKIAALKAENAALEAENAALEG

P7-AA = biological target: T30, P7-AA; assay: two-hybrid library CCmax
T30 chain: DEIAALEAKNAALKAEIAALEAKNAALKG

P8-AA = biological target: T31, P8-AA; assay: two-hybrid library CCmax; settings: mean of both orientations
T31 chain: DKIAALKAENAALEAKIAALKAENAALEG

P9-AA = biological target: T32, P9-AA; assay: two-hybrid library CCmax
T32 chain: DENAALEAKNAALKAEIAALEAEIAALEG

zCON9_A = biological target: T33, zCON9_A; assay: two-hybrid library CCmax
T33 chain: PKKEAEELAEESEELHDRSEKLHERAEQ

zCON9_B = biological target: T34, zCON9_B; assay: two-hybrid library CCmax; settings: mean of both orientations
T34 chain: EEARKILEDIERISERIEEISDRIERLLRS

zCON9_D = biological target: T35, zCON9_D; assay: two-hybrid library CCmax
T35 chain: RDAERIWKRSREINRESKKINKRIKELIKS

P11mS = biological target: T36, P11mS; assay: two-hybrid library CCNG1
T36 chain: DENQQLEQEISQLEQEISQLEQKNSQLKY

P12mS = biological target: T37, P12mS; assay: two-hybrid library CCNG1
T37 chain: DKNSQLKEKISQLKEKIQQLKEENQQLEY

P3mS = biological target: T38, P3mS; assay: two-hybrid library CCNG1
T38 chain: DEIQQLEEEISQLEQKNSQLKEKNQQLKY

P4mS = biological target: T39, P4mS; assay: two-hybrid library CCNG1
T39 chain: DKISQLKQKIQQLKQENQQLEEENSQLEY

P5mS = biological target: T40, P5mS; assay: two-hybrid library CCNG1
T40 chain: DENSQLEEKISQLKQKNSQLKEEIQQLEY

P6mS = biological target: T41, P6mS; assay: two-hybrid library CCNG1
T41 chain: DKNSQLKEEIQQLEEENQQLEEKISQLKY

P7mS = biological target: T42, P7mS; assay: two-hybrid library CCNG1
T42 chain: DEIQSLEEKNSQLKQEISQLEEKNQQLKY

P8mS = biological target: T43, P8mS; assay: two-hybrid library CCNG1
T43 chain: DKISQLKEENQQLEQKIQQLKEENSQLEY

P9mS = biological target: T44, P9mS; assay: two-hybrid library CCNG1
T44 chain: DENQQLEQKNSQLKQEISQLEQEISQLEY

Chain of 4H_GCN4 (chain, as listed by the source): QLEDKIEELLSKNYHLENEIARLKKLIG

interaction score (4H2568-bA): 1.94 | interaction score (4H2619-bA): 0.254 | interaction score (4H2745-bA): -0.347 | interaction score (4H344-bA): 0.491 | interaction score (4H363-bA): 0.53 | interaction score (4H3907-bA): 1.89 | interaction score (4H3961-bA): 2.32 | interaction score (4H470-bA): -0.973
Binder: DKIAQLKQEIAELEQEIAELEWKNAQLKQ [4H2568-bA]

interaction score (4H_APH3): -1.54 | interaction score (4H_APH): -2.1 | interaction score (4H_BCR): -1.64 | interaction score (4H_GCN4): -2.22 | interaction score (AP1-AA): -1.47 | interaction score (AP2-AA): -1.63 | interaction score (AP3-AA): -1.35 | interaction score (AP4-AA): -1.31 | interaction score (AP5-AA): -2.21 | interaction score (AP6-AA): -2.09 | interaction score (AP7-AA): -2.03 | interaction score (AP8-AA): -1.48 | interaction score (GCN2_T): -2.07 | interaction score (O11-AA): -1.39 | interaction score (O13-AA): -1.81 | interaction score (O14-AA): -1.65 | interaction score (P1-AA): -2.11 | interaction score (P10-AA): -1.47 | interaction score (P11-AA): -1.03 | interaction score (P12-AA): -1.3 | interaction score (P2-AA): -1.82 | interaction score (P3-AA): -0.728 | interaction score (P4-AA): -1.9 | interaction score (P7-AA): -1.87 | interaction score (P8-AA): -1.89 | interaction score (P9-AA): -1.86 | interaction score (zCON9_A): -1.26 | interaction score (zCON9_B): -2.09 | interaction score (zCON9_D): -1.96
Binder: KELQAIEKQLAQLQWKAQARKKKLAQLKK [4H_APH]

interaction score (P11mS): -0.707 | interaction score (P12mS): 1.52 | interaction score (P3mS): -0.646 | interaction score (P4mS): 0.774 | interaction score (P5mS): 0.261 | interaction score (P6mS): -0.739 | interaction score (P7mS): -0.84 | interaction score (P8mS): -0.0076 | interaction score (P9mS): -0.542
Binder: DENQQLEQEISQLEQEISQLEQKNSQLKY [P11mS]
